In patent US20020016443A1, “Antiproliferative factor” (priority 1996, published 2002):

System: APF activity on primary normal bladder epithelial cells
Test: Blocking of APF antiproliferative activity by recombinant growth factors (^3H-thymidine incorporation)
Assay type: cell-based, human
Experimental: ^3H-Thymidine Incorporation. Primary normal adult human bladder epithelial cells (HBE) were grown from biopsies obtained at autopsy from patients who had no history of bladder disorder. HBE cells were plated at a density of 1×10^4 cells/well onto 96 well tissue culture plates and incubated at 37° C. overnight (resulting in approximately 60% confluence the following day). The medium was then changed to MEM containing only 1% glutamine and 1% antibiotic/ antimycotic solution, and the cells were incubated at 37° C. overnight. […] Cells were then trypsinized, and insoluble cell contents harvested and methanol-fixed onto glass fiber filter paper, as previously described^62; the amount of radioactivity incorporated was determined as counts per minute using a Beckman LS 3801 scintillation counter. […]
To determine whether the antiproliferative effect of the APF on bladder epithelial cells might be due to a decrease in HB-EGF production, primary normal bladder epithelial cells were simultaneously incubated with varying levels of recombinant HB-EGF, EGF, or IGF1 and low molecular weight urine fractions from IC patients. […] This effect was evident using a concentration of HB-EGF (10 ng/ml) in the range previously determined for normal controls (2-22 ng/ml, mean 6.33 ng/ml) 12 as well as higher concentrations (30 and 100 ng/ml). […]

B1: heparin-binding epidermal growth factor-like growth factor (protein, UniProt Q99075 63-148, looked up)
Heparin-binding EGF-like …: DLQEADLDLLRVTLSSKPQALATPNKEEHGKRKKKGKGLGKKRDPCLRKYKDFCIHGECKYVKELRAPSCICHPGYHGERCHGLSL
In the case of B1, the “inhibition of antiproliferative activity of HPLC-purified APF” value (10 ng purified APF, 30 ng/ml of HB-EGF, normal and IC patient cells) is reported as “inhibited for 2 of 3 APF specimens” and the “inhibition of IC urine antiproliferative activity by recombinant growth factor” value (co-incubation with low molecular weight IC urine fractions, HB-EGF 10, 30 and 100 ng/ml, EGF, IGF1 up to about 12 and 25 fold normal levels) is reported as “inhibited by HB-EGF in a dose-dependent manner”.
